Laboratory results taken from PMC10675840, “Structure-function analysis of ceTIR-1/hSARM1 explains the lack of Wallerian axonal degeneration in C. elegans” (Cell reports, 2023).
One block for each molecule: values may come before it.

How the values were obtained:
[1] = biological target: T1, ceTIR-1 (Caenorhabditis elegans, UniProt Q86DA5); experiment: HPLC NAD+ consumption, dose response; format: biochemical
T1 construct: gene tir-1; near-intact ARM-SAM-SAM-TIR, residues 162-872 (HMD...QQR), N-terminal 6xHis + TEV site, HEK293F expression, mostly 9-mer ring, partly dissociated
T1 sequence (Q86DA5 216-926): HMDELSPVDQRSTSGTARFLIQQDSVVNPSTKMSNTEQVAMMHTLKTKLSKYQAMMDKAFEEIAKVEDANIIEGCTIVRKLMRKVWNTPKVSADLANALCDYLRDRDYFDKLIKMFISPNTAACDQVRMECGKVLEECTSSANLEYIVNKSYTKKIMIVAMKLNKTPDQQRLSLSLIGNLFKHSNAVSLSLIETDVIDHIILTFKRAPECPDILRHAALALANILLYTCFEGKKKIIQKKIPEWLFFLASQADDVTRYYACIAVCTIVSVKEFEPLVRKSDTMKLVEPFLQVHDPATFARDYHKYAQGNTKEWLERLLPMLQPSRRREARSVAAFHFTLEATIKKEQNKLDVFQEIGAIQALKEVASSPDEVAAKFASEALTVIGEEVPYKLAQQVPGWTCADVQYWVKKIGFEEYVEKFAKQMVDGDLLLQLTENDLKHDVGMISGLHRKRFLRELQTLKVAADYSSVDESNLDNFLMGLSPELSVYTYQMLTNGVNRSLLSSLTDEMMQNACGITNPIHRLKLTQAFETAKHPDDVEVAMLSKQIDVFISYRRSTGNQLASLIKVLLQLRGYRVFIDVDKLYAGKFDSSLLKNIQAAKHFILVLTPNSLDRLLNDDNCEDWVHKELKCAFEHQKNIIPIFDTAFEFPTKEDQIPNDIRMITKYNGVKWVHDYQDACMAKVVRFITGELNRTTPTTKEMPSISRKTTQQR
Excerpt: HPLC NAD+ consumption, dose response on ceTIR-1 | Nicotinamide (NAM) inhibits ceTIR-1 NADase activity

[2] = biological target: the molecule itself; experiment: cryo-EM structure; purified CHIMERA supplemented with 5 mM NAD+; Titan Krios; 136,346 particles, C8 symmetry imposed
[3] = biological target: the molecule itself; experiment: SEC; gel filtration of Ni-NTA purified hSARM1 and ceTIR-1, fractions read by anti-FLAG WB; Superdex 200 Increase 10/300, 25 mM phosphate pH 8.5, 120 mM NaCl, 2.5% glycerol, 1 mM DTT
[4] = biological target: the molecule itself; experiment: cross-linking; glutaraldehyde cross-linking of ceTIR-1^TIR and ceTIR-1^(TIR L729H)
[5] = biological target: T2, hSARM1 ARM and SAM domains (residues 26-562), the human part of CHIMERA (human, UniProt Q6SZW1 26-562); experiment: cryo-EM structure; purified CHIMERA supplemented with 5 mM NAD+; Titan Krios; 136,346 particles, C8 symmetry imposed; details: both partners purified
T2 construct: human SARM1 ARM and SAM domains, residues 26-562 (26ERL...DTP562); Stood joined on one chain with m8 (together they are CHIMERA); written apart only for the contact of the human ARM with the C. elegans TIR in the structure; also called human ARM and SAM domains; source: HEK293F, transfected, purified, as part of the CHIMERA chain
T2 sequence (looked up): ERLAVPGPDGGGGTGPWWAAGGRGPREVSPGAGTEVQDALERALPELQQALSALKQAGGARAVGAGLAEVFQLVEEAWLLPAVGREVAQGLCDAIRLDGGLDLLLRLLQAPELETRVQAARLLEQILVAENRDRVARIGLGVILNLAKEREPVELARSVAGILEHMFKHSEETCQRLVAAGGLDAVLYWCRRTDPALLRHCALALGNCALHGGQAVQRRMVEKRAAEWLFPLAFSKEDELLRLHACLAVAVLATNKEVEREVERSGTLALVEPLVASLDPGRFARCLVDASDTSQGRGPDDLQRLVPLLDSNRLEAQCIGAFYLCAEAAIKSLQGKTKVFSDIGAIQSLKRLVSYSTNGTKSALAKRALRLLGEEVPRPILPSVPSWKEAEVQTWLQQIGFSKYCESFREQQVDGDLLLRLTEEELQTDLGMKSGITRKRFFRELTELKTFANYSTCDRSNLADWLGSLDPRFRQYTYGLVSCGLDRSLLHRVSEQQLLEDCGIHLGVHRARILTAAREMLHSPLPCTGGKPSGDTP

[6] = substrate: NC(=O)c1ccc[n+]([C@@H]2O[C@H](COP(=O)(O)OP(=O)(O)OC[C@H]3O[C@@H](n4cnc5c(N)ncnc54)[C@H](O)[C@@H]3O)[C@@H](O)[C@H]2O)c1; experiment: HPLC NAD+ consumption, Michaelis-Menten fit; format: biochemical, Caenorhabditis elegans; details: […] min, […] enzyme, pH […], unit appears as mM, a character error for µM (b50 gives about […] for hSARM1 and […] higher for ceTIR-1)

Molecule: NC(=O)c1cccnc1 [NAM]
IC50 [1]: 910 µM

B1: CHIMERA (hSARM1 26-562 fused to ceTIR-1 709-872) (enzyme, human | C. elegans, UniProt Q6SZW1 26-562, looked up)
chain: ERLAVPGPDGGGGTGPWWAAGGRGPREVSPGAGTEVQDALERALPELQQALSALKQAGGARAVGAGLAEVFQLVEEAWLLPAVGREVAQGLCDAIRLDGGLDLLLRLLQAPELETRVQAARLLEQILVAENRDRVARIGLGVILNLAKEREPVELARSVAGILEHMFKHSEETCQRLVAAGGLDAVLYWCRRTDPALLRHCALALGNCALHGGQAVQRRMVEKRAAEWLFPLAFSKEDELLRLHACLAVAVLATNKEVEREVERSGTLALVEPLVASLDPGRFARCLVDASDTSQGRGPDDLQRLVPLLDSNRLEAQCIGAFYLCAEAAIKSLQGKTKVFSDIGAIQSLKRLVSYSTNGTKSALAKRALRLLGEEVPRPILPSVPSWKEAEVQTWLQQIGFSKYCESFREQQVDGDLLLRLTEEELQTDLGMKSGITRKRFFRELTELKTFANYSTCDRSNLADWLGSLDPRFRQYTYGLVSCGLDRSLLHRVSEQQLLEDCGIHLGVHRARILTAAREMLHSPLPCTGGKPSGDTPDVFISYRRSTGNQLASLIKVLLQLRGYRVFIDVDKLYAGKFDSSLLKNIQAAKHFILVLTPNSLDRLLNDDNCEDWVHKELKCAFEHQKNIIPIFDTAFEFPTKEDQIPNDIRMITKYNGVKWVHDYQDACMAKVVRFITGELNRTTPTTKEMPSISRKTTQQR
notes: human SARM1 ARM and SAM domains, residues 26-562 (26ERL...DTP562); ceTIR-1 TIR domain, residues 709-872 (709DVF...QQR872); Octamer by cryo-EM, sample supplemented with 5 mM NAD+; also called hARM-SAM-ceTIR CHIMERA; Chimera construct; source: HEK293F, transfected, purified (Ni-chelate, Superdex 200 Increase SEC)
stoichiometry N [2]: 8

B2: hSARM1 (near-intact, residues 26-724) (enzyme, human, UniProt Q6SZW1 26-724, looked up)
chain: ERLAVPGPDGGGGTGPWWAAGGRGPREVSPGAGTEVQDALERALPELQQALSALKQAGGARAVGAGLAEVFQLVEEAWLLPAVGREVAQGLCDAIRLDGGLDLLLRLLQAPELETRVQAARLLEQILVAENRDRVARIGLGVILNLAKEREPVELARSVAGILEHMFKHSEETCQRLVAAGGLDAVLYWCRRTDPALLRHCALALGNCALHGGQAVQRRMVEKRAAEWLFPLAFSKEDELLRLHACLAVAVLATNKEVEREVERSGTLALVEPLVASLDPGRFARCLVDASDTSQGRGPDDLQRLVPLLDSNRLEAQCIGAFYLCAEAAIKSLQGKTKVFSDIGAIQSLKRLVSYSTNGTKSALAKRALRLLGEEVPRPILPSVPSWKEAEVQTWLQQIGFSKYCESFREQQVDGDLLLRLTEEELQTDLGMKSGITRKRFFRELTELKTFANYSTCDRSNLADWLGSLDPRFRQYTYGLVSCGLDRSLLHRVSEQQLLEDCGIHLGVHRARILTAAREMLHSPLPCTGGKPSGDTPDVFISYRRNSGSQLASLLKVHLQLHGFSVFIDVEKLEAGKFEDKLIQSVMGARNFVLVLSPGALDKCMQDHDCKDWVHKEIVTALSCGKNIVPIIDGFEWPEPQVLPEDMQAVLTFNGIKWSHEYQEATIEKIIRFLQGRSSRDSSAGSDTSLEGAAPMGPT
notes: human SARM1 (sterile alpha and TIR motif containing 1), residues 26-724 (26ERL...GPT724); A TEV site follows the His tag; no cleavage is described; also called human SARM1; source: HEK293F, transfected, purified (Ni-chelate, Superdex 200 Increase SEC)
binding result [3]: binds

B3: ceTIR-1^TIR (residues 703-872) (domain or fragment, C. elegans, UniProt Q86DA5-2 703-872, looked up)
chain: MLSKQIDVFISYRRSTGNQLASLIKVLLQLRGYRVFIDVDKLYAGKFDSSLLKNIQAAKHFILVLTPNSLDRLLNDDNCEDWVHKELKCAFEHQKNIIPIFDTAFEFPTKEDQIPNDIRMITKYNGVKWVHDYQDACMAKVVRFITGELNRTTPTTKEMPSISRKTTQQR
notes: ceTIR-1 TIR domain, residues 703-872 (703MLS...QQR872); Dimeric by glutaraldehyde cross-linking; also called isolated TIR domain of ceTIR-1; source: E. coli T7 Express, purified (HisTrap, TEV, second HisTrap, Superdex SEC); not shown: His tag, N-terminal, cleaved
stoichiometry N [4]: 2

binding result [5]: binds
B4: ceTIR-1 TIR domain (residues 709-872), the C. elegans part of CHIMERA (domain or fragment, UniProt Q86DA5-2 709-872, looked up)
chain: DVFISYRRSTGNQLASLIKVLLQLRGYRVFIDVDKLYAGKFDSSLLKNIQAAKHFILVLTPNSLDRLLNDDNCEDWVHKELKCAFEHQKNIIPIFDTAFEFPTKEDQIPNDIRMITKYNGVKWVHDYQDACMAKVVRFITGELNRTTPTTKEMPSISRKTTQQR
notes: ceTIR-1 TIR domain, residues 709-872 (709DVF...QQR872); Stood joined on one chain with m7 (together they are CHIMERA); also called C. elegans TIR; source: HEK293F, transfected, purified, as part of the CHIMERA chain

B5: ceTIR-1 (Caenorhabditis elegans) (protein)
chain: HMDELSPVDQRSTSGTARFLIQQDSVVNPSTKMSNTEQVAMMHTLKTKLSKYQAMMDKAFEEIAKVEDANIIEGCTIVRKLMRKVWNTPKVSADLANALCDYLRDRDYFDKLIKMFISPNTAACDQVRMECGKVLEECTSSANLEYIVNKSYTKKIMIVAMKLNKTPDQQRLSLSLIGNLFKHSNAVSLSLIETDVIDHIILTFKRAPECPDILRHAALALANILLYTCFEGKKKIIQKKIPEWLFFLASQADDVTRYYACIAVCTIVSVKEFEPLVRKSDTMKLVEPFLQVHDPATFARDYHKYAQGNTKEWLERLLPMLQPSRRREARSVAAFHFTLEATIKKEQNKLDVFQEIGAIQALKEVASSPDEVAAKFASEALTVIGEEVPYKLAQQVPGWTCADVQYWVKKIGFEEYVEKFAKQMVDGDLLLQLTENDLKHDVGMISGLHRKRFLRELQTLKVAADYSSVDESNLDNFLMGLSPELSVYTYQMLTNGVNRSLLSSLTDEMMQNACGITNPIHRLKLTQAFETAKHPDDVEVAMLSKQIDVFISYRRSTGNQLASLIKVLLQLRGYRVFIDVDKLYAGKFDSSLLKNIQAAKHFILVLTPNSLDRLLNDDNCEDWVHKELKCAFEHQKNIIPIFDTAFEFPTKEDQIPNDIRMITKYNGVKWVHDYQDACMAKVVRFITGELNRTTPTTKEMPSISRKTTQQR
notes: near-intact ARM-SAM-SAM-TIR, residues 162-872 (HMD...QQR), N-terminal 6xHis + TEV site, HEK293F expression, mostly 9-mer ring, partly dissociated
Km [6]: 0.25 mM
